Target: T1, human FSH receptor (human, UniProt P23945 18-695)
T1 sequence (looked up): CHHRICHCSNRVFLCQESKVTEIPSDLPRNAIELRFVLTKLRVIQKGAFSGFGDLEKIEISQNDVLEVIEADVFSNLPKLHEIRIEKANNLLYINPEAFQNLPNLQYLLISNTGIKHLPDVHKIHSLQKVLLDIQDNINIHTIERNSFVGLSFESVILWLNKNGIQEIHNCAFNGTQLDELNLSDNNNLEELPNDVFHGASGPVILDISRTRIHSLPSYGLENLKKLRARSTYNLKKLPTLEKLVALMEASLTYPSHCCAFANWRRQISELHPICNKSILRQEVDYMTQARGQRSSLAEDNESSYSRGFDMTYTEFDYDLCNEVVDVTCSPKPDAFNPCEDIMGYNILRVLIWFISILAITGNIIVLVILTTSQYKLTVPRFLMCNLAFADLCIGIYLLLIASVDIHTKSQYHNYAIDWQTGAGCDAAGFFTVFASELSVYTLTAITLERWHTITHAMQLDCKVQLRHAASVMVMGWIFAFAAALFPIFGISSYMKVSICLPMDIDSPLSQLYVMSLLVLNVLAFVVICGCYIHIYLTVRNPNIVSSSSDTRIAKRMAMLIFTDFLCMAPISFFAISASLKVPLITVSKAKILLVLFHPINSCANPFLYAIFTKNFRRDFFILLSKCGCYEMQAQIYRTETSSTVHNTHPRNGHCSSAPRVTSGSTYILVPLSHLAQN
Test: cell-based or functional assay

B1: Clone 15C- α D3N/β GM1 (ligand)
chain 1: not shown
chain 2: NSCELTNITIAIEKEECRFCISINTTWCAGYCYTRDLVYKDPARPKIQKTCTFKNLTYETVRVPGCAHHADSLYTYPVATQCHCGKCDSDSTDCTVRGLGPSYCSFGEMKE
- EC50 M (cAMP production in CHO-FSHR cells): 0.414 nM
